Patent publication US10501502B2, “Allophycocyanin alpha-subunit evolved labeling proteins (smURFPs)” (The Regents of the University of California, priority 2016, dated 2019)

Columns and labels:
primary cortical neurons = assay: Rat primary neuronal cultures transduced with smURFP T2A mCherry lentivirus; format: cell-based; settings: 15 d after transduction
Text: smURFP-T2A-mCherry (GenBank AY678264), smURFP-T2A-mCardinal, smURFP, and mCardinal (Addgene 51311) were subcloned in a generation-two lentiviral vector with the CMV promoter for constitutive expression. Viruses were produced as described^45. The procedures for extracting cultured neurons from rat pups were approved by the UCSD Institutional Animal Care and Use Committee (IACUC, #503172R) and are consistent with the recommendations of the American Veterinary Medical Association. Primary cortical neurons were dissociated by papain from postnatal day 2 Sprague Dawley rats (n=6) of either sex and combined, plated on poly-D-lysine-coated glass-bottom culture dishes (MatTek, #P35G-0-14-C), and cultured in Neurobasal A medium+1×B27 supplement (Life Technologies)+2 mM GlutaMAX (Life Technologies)+1×penicillin-streptomycin (Fisher Scientific). Prior to fluorescence imaging, 25 μM BV was added for 10 min, removed, and washed with 2×2 ml Hank's Balanced Salt Solution (HBSS, Life Technologies)+2 g/L glucose+20 mM HEPES (pH 7.4), referred to as imaging solution. Fluorescence imaging was performed in vitro 15 d after infection using a Zeiss Axiovert 200M inverted microscope controlled by SlideBook software. FPs were imaged as follows: smURFP and TDsmURFP, EX/EM=628(40)/680(30) nm; and mCherry, EX/EM=580(20)/653(95) nm.

[1] = In vitro photobleaching of bubbles of purified FP or Cy5 in mineral oil; format: physicochemical
Procedure: EX and EM spectra were obtained using SPEX Fluorolog fluorometer (Horiba). Absorbance spectra were obtained using UV-VIS Spectrophotometer Cary Eclipse (Varian) or UV-2700 (Shimadzu). Quantum yield was determined relative to Cy5. Incorporation rates of BV on 0.5 μM smURFP was performed by addition of smURFP to PBS alone or with 20% fetal bovine serum (FBS) and mixed by pipetting in a quartz cuvette. Chromophore was added last, mixed by pipetting, and fluorescence was recorded using SPEX Fluorolog fluorometer (Horiba). Photobleaching was characterized on bubbles of purified FP or Cy5 within mineral oil using light from a 150 W xenon arc lamp with 100% light through EX/EM=628(40)/680(30) nm for smURFP, TDsmURFP, and Cy5 or EX/EM=665 (45)/725 (50) nm for IFP 1.4 focused with a 40×, 1.2 numerical aperture C-Apochromat oil-immersion lens on a Zeiss Axiovert 200M inverted microscope. Photobleaching times were normalized to reflect an initial illumination intensity producing 1,000 photons per fluorescent molecule per second as previously described^37.

Escherichia coli = assay: Fluorescence of FPs expressed in Escherichia coli; format: cell-based
Procedure: TeAPCα gene (codons optimized for Escherichia coli) was made by GenScript. Mutations were placed by random mutagenesis using GeneMorphII Random Mutagenesis Kit (Agilent Technologies). Screens for mutants that fluoresce with PCB or BV were performed by subcloning into a pBAD vector (Life Technologies) that expressed cyanobacteria Synechocystis HO-1 and Synechocystis PcyA genes for PCB production and Synechocystis HO-1 only for BV production, as previously described^34. Libraries were expressed in TOP 10 Electrocompetent Escherichia coli cells (Life Technologies) with addition of 0.2% arabinose to LB agar plates (FPs were constitutively expressed in Escherichia coli). Fluorescence was imaged on plates using a BioSpectrum AC Imaging System (UVP) with EX/EM=628(40)/690(50) nm for FPs+PCB, EX/EM=685(40)/710LP nm for rounds 4 and 5 FPs+BV, and EX/EM=650(13)/690(50) nm for Cy5-like FPs+BV (rounds 6-12). At round 6, 5-10 of the brightest colonies on each plate were combined in LB+0.2% arabinose, grown ˜18 h, mixture of plasmid DNA was purified, and TOP10 cells were transformed and plated on LB agar plates+0.2% arabinose. Fluorescence was screened on plates (as described above), 10-20 of the brightest colonies were screened in liquid culture fluorescence (FIG. 7a-e), plasmid DNA was purified, and DNA was sequenced. The plasmid DNA of 2-3 of the brightest FPs was chosen for mutagenesis for the subsequent round. When choosing DNA for subsequent mutagenesis rounds, genes with increased and/or novel silent DNA mutations were chosen over other DNA that had the same DNA and/or protein sequence of the previous round. Site-specific mutagenesis was performed using QuikChange Lightning Mutagenesis Kit (Agilent Technologies) to create smURFP (C4S mutation) and smURFP C52S.

B1: smURFP: small ultra-red fluorescent protein, SEQ ID NO: 13, homodimer, covalently attaches biliverdin (protein)
chain: MKTSEQRVNIATLLTENKKKIVDKASQDLWRRHPDLIAPGGIAFSQRDRALCLRDYGWFLHLITFCLLAGDKGPIESIGLISIREMYNSLGVPVPAMMESIRCLKEASLSLLDEEDANETAPYFDYIIKAMS
modifications: homodimer; biliverdin chromophore; smRUFP Variant Polypeptide
Q: For B1, which “lysosomal aggregation in neuronal culture” value (primary cortical neurons) is on record?
A: The value was “not seen”.

Q: What about the “in vitro photobleaching t50%” value ([1]; excitation intensity yielding 1,000 photons per s) of the same molecule?
A: Its value is 300 s.

Q: And the “In vitro photostability t50%” value ([1]; time to bleach 50% from an initial emission rate of 1,000 photons per s)?
A: The value was 300 s.

Q: And the “fluorescence when expressed in E. coli (qualitative)” value (Escherichia coli)?
A: The value was “greater than that of infrared FPs IFP1.4 and iRFP713”.

Q: And the “fold brighter than R1+PCB” value (Escherichia coli; expressed in E. coli)?
A: Its value is about 650 fold.
